Key:
[1] = molecular target: N571 Q55 HTT (N-terminal huntingtin fragment 1-571 with 55 glutamines); assay: ELISA protein-protein interaction assay (2B7 capture, anti-FLAG detection); details: lysates of HEK293T cells co-overexpressing N571 Q55 HTT and FLAG-tagged IKBKB construct; parent: est. 100; read off a plot
[2] = molecular target: inhibitor of nuclear factor kappa B kinase subunit beta (IKBKB), FLAG-tagged (UniProt O14920); assay: as above; details: lysates of HEK293T cells co-overexpressing N571 Q55 HTT WT or S13A/S16A and FLAG-tagged IKBKB; parent: est. 100; read off a plot

Row | Substance | percent of parent [1] | percent of parent [2]
1 | inhibitor of nuclear factor kappa B kinase subunit beta (IKBKB), FLAG-tagged (from UniProt O14920) K44A | 17% | –
2 | N571 Q55 HTT (N-terminal huntingtin fragment 1-571 with 55 glutamines) S13A; S16A | – | 100%
3 | inhibitor of nuclear factor kappa B kinase subunit beta (IKBKB), FLAG-tagged (from UniProt O14920) W739A; W741A | 190% | –
4 | inhibitor of nuclear factor kappa B kinase subunit beta (IKBKB), FLAG-tagged (from UniProt O14920) S177E; S181E | 190% | –

— publication PMC10410066
